Source: patent publication US20220017616A1 (Amgen, published 2022)
Where a chain is given by its changes, count along the chain named. Where “and” joins values, the source holds several entries; their conditions need not be identical. Equal entries are not always repeated. One block for each binder: values may come before it.

Key:
human CD155 on cells = biological target: T1, human CD155 on cells (human, UniProt P15151 21-417); assay: flow cytometry, CD226-Fc at 10 ug/mL on mock-transfected 293T cells
T1 construct: whole, on cells; also called huCD155
T1 sequence (looked up): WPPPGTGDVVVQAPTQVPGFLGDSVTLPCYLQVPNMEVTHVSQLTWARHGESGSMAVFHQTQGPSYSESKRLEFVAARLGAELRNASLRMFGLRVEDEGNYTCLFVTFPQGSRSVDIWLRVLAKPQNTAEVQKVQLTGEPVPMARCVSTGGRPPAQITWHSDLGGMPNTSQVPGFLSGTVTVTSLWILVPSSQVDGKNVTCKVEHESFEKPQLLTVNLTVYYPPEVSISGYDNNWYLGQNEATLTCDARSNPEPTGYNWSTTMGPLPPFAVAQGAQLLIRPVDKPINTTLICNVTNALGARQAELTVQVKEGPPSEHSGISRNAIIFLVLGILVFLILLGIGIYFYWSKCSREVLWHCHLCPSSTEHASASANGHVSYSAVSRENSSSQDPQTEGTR
Procedure: In the presence of tool TIGIT antibodies, TIGIT expressed by TIGIT-293 cells is bound by tool antibodies and is blocked from binding to CD155, thereby allowing CD226 to interact with CD155. […] Cells were washed 1× with FACS Buffer and resuspended in FACS buffer. Samples were analyzed using a BD Accuri™ Flow Cytometer and an Intellicyt HyperCyt autoSampler.

human TIGIT [1] = biological target: T2, human TIGIT (human, UniProt Q495A1 22-244); assay: cell-based or functional assay
T2 sequence: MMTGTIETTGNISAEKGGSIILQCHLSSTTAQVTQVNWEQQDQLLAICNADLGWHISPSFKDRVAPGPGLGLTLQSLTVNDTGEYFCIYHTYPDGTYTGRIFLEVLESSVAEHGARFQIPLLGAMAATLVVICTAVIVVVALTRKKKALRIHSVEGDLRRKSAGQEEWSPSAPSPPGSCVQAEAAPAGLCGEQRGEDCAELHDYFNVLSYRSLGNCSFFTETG

huTIGIT (PL44403) = biological target: T3, huTIGIT (PL44403) (human, UniProt Q495A1 22-141); assay: Octet, antibody on anti-huIgG Fc capture tips, huTIGIT as analyte
T3 construct: Soluble protein; also called Human TIGIT (Octet analyte, mono-Fc tag)
T3 sequence: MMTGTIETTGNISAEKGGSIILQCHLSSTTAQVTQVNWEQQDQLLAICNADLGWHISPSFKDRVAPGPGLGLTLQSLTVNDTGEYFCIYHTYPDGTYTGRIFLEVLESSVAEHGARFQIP
Procedure: (§1) In the case of cynoTIGIT, association was monitored for 5 min and dissociation for 5 min. […] The limit of detection of dissociation is 4e-5 based on a minimum of 5% dissociation over 20 minutes.

cynoTIGIT (PL40461) = biological target: T4, cynoTIGIT (PL40461) (cynomolgus monkey); assay: Octet, antibody on anti-huIgG Fc capture tips, cynoTIGIT as analyte
T4 construct: Soluble protein; also called Cyno TIGIT (Octet analyte)
Procedure: as §1

cynomolgus TIGIT [2] = biological target: T5, cynomolgus TIGIT (cynomolgus monkey); assay: flow cytometry on activated primary cyno PBMCs, fold over isotype control
T5 construct: Cell-surface form; also called cyno TIGIT
Procedure: (§2) The binding of hybridoma supernatants to TIGIT expressed by primary human and cynomolgus monkey cells were tested by flow cytometry. For human primary cell binding assay, purified human T cells (Biological Specialty Corp.) were thawed and suspended at a concentration of 2.5×10⁶ cells/mL. […] After 72 hours, cells were removed, washed and suspended at a concentration of 0.5×10⁶ cells/mL with 10 ng/mL of IL-2 (Pepro Tech). Cells were then incubated for another 48 to 72 hours at 37° C./5% CO₂. For cynomolgus primary cell binding assay, cynomolgus PBMCs (SNBL) were thawed and suspended in a concentration between 4×10⁶ and 5×10⁶ cells/mL. […] After 72 hours, cells were removed, washed and suspended at a concentration of 0.5×10E6 cells/mL with 20 ng/mL of IL-2 (Pepro Tech). Cells were then incubated for another 48 to 72 hours at 37° C./5% CO₂. After the final incubation, cells were prepared for flow cytometry by incubation with normalized hybridoma supernatants, positive control antibodies and isotype control antibodies at 1 μg/mL final concentration. […] Cells were then run on BD FACSCanto II flow cytometer to detect anti-TIGIT antibody binding.

human TIGIT [3] = biological target: T2, human TIGIT; assay: flow cytometry, 1 µg/mL on activated primary human T cells, fold over isotype control
Procedure: as §2

human TIGIT [4] = biological target: T2, human TIGIT; assay: flow cytometry on CHO-S cells expressing human TIGIT, competitor CD112-Fc-Alexa 647, at 1 ug/mL
Procedure: (§3) TIGIT-binding hybridoma supernatants were then tested for their ability to block TIGIT from binding ligand. […] The 7-AAD cell viability stain was then added and the cells incubated for a further 15 minutes at 4° C., washed twice and resuspended in FACS buffer. Samples were analyzed using a BD Accuri™ Flow Cytometer and an Intellicyt HyperCyt autoSampler.

human TIGIT [5] = biological target: T2, human TIGIT; assay: flow cytometry on CHO-S cells expressing human TIGIT, competitor huCD155-Fc-Alexa 647, at 1.7 µg/mL
Procedure: as §3

human TIGIT [6] = biological target: T2, human TIGIT; assay: cell-based or functional assay; remark: listed apart in the source
[7] = biological target: T6, human CD112R expressed on CHO K1 cells (pMSCV_FLAG_human CD112R (N81D)(41-326)_IRES_EGFP) (human, UniProt Q6DKI7 41-326); assay: flow cytometry on CHO K1 cells expressing human CD112R
T6 construct: also called huCD112R; human CD112R expressed on CHO cells; not shown: FLAG tag named in the vector
T6 sequence: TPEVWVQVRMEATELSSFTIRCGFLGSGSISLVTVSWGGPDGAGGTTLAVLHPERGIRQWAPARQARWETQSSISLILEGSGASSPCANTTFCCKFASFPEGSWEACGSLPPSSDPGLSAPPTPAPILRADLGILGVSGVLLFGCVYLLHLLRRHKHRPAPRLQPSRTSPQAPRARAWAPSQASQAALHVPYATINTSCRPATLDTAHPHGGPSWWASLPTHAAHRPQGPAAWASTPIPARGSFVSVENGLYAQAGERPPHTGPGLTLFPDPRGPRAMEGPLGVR

cynomolgus TIGIT [8] = biological target: T5, cynomolgus TIGIT; assay: flow cytometry, 1 µg/mL on activated primary cyno PBMCs, fold over isotype control
Procedure: as §2

T5 sequence (chain, as listed by the source): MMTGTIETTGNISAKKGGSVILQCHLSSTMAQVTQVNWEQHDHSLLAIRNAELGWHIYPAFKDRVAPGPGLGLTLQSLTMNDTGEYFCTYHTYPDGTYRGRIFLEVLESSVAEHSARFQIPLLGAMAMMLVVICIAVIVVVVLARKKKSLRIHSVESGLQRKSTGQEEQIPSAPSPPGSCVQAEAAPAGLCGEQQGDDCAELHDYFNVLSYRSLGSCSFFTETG
T4 sequence (chain, as listed by the source limits assumed): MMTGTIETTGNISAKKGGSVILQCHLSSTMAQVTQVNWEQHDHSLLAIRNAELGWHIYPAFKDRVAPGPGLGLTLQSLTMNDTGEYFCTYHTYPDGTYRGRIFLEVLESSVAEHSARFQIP

binding result (human CD155 on cells): binds
B1: human CD226-Fc (Fc fusion, UniProt Q15762 19-247, looked up, not shown: a dimerising Fc or GST)
chain: EEVLWHTSVPFAENMSLECVYPSMGILTQVEWFKIGTQQDSIAIFSPTHGMVIRKPYAERVYFLNSTMASNNMTLFFRNASEDDVGYYSCSLYTYPQGTWQKVIQVVQSDSFEAAVPSNSHIVSEPGKNVTLTCQPQMTWPVQAVRWEKIQPRQIDLLTYCNLVHGRNFTSKFPRQIVSNCSHGRWSVIVIPDVTVSDSGLYRCYLQASAGENETFVMRLTVAEGKTDN
notes: also called huCD226; CD226-Fc (R&D, 666-DN)

Potency [nM], Jurkat human TIGIT/IL-2-luciferase RGA, n = 1 (human TIGIT [1]): 1.9 nM
Potency [nM], Jurkat human TIGIT/IL-2-luciferase RGA, n = 2 (human TIGIT [1]): 2.7 nM
Kd (huTIGIT (PL44403)): < 0.1 nM
binding result (cynoTIGIT (PL40461)): no binding
binding result (cynomolgus TIGIT [2]): no binding (tested: 1 µg/mL)
FACS Geomean Fold (human TIGIT [3]): 11.6 fold
% inhibition (human TIGIT [4]): 100%
% inhibition (human TIGIT [5]): 100%
B2: 11A3 (antibody, V domains shown)
VH: QVQLVQSGAEVKKPGASVKVSCKASGYTFTSYYIHWVRQAPGQGLEWMGIINPSGGRTSYAQMFQGRVTLTRDTSTNTVYMELSSLRSEDTAVFYCAKDREEQWPVGGFDYWGQGTLVTVSS
VL: DIQMTQSPSSLSASVGDRVTITCRASQNIRRYLNWYQQKPGKAPELLIYSASNLQNGVPSRFSGSGSGTDFTLTISSLQPEDFATYYCQQSYIIPPTFGQGTKVEIRR
notes: Fully human XenoMouse antibody, tested as hybridoma supernatant or purified mAb

activity in the primary CD8 memory T-cell assay (IFN-γ release, CHO-K1-CD155+ cells) (human TIGIT [6]): 160 pM
Potency [nM], Jurkat human TIGIT/IL-2-luciferase RGA, n = 1 (human TIGIT [1]): 4.3 nM
Potency [nM], Jurkat human TIGIT/IL-2-luciferase RGA, n = 2 (human TIGIT [1]): 2.1 nM
Kd (huTIGIT (PL44403)): < 0.1 nM
binding result (cynoTIGIT (PL40461)): no binding
binding result (cynomolgus TIGIT [2]): no binding (tested: 1 µg/mL)
FACS Geomean Fold (human TIGIT [3]): 14.4 fold
% inhibition (human TIGIT [4]): 97%
% inhibition (human TIGIT [5]): 100%
B3: 28B8 (antibody, V domains shown)
VH: QVQLQESGPGLVKPSETLFLTCTVSGGSVTNYYWSWIRQPAGKGLEWIGRIYTSGSTYYNPSLKSRVTMSLDTSKNQFSLRLSSVTAADTAVYYCAREGFTMVRGVMGAFDIWGQGTMVTVSS
VL: B2 VL with N28S, K39I, E45K, L46F, S50D, N53S, N56S, I93S, I94T, R107K
notes: as for B2

EC50 [7]: 1.61 µg/mL and 12.8 nM
B4: human CD112-Fc (Fc fusion, UniProt Q92692 32-360, looked up, not shown: a dimerising Fc or GST)
chain: QDVRVQVLPEVRGQLGGTVELPCHLLPPVPGLYISLVTWQRPDAPANHQNVAAFHPKMGPSFPSPKPGSERLSFVSAKQSTGQDTEAELQDATLALHGLTVEDEGNYTCEFATFPKGSVRGMTWLRVIAKPKNQAEAQKVTFSQDPTTVALCISKEGRPPARISWLSSLDWEAKETQVSGTLAGTVTVTSRFTLVPSGRADGVTVTCKVEHESFEEPALIPVTLSVRYPPEVSISGYDDNWYLGRTDATLSCDVRSNPEPTGYDWSTTSGTFPTSAVAQGSQLVIHAVDSLFNTTFVCTVTNAVGMGRAEQVIFVRETPNTAGAGATGG
notes: treated as the same reagent; also called Human CD112 Ligand; CD112 ligand

activity in the primary CD8 memory T-cell assay (IFN-γ release, CHO-K1-CD155+ cells) (human TIGIT [6]): 90 pM
Potency [nM], Jurkat human TIGIT/IL-2-luciferase RGA, n = 1 (human TIGIT [1]): 3.4 nM
Potency [nM], Jurkat human TIGIT/IL-2-luciferase RGA, n = 2 (human TIGIT [1]): 2.5 nM
Kd (huTIGIT (PL44403)): < 0.1 nM
Kd (cynoTIGIT (PL40461)): 13 nM
FACS Geomean Fold (cynomolgus TIGIT [8]): 4.7 fold
FACS Geomean Fold (human TIGIT [3]): 13.7 fold
% inhibition (human TIGIT [4]): 100%
% inhibition (human TIGIT [5]): 100%
B5: 43B7 (antibody, V domains shown)
VH: QVQLQESGPGLVKPSQTLSLTCTVSGGSISSGGYYWSWIRQHPGKGLEWIGYIYYRGGTYYNPSLRSRVTMSVDTSKNQFSLMLSSVTAADTAVYYCARTIFGVIILDNWGQGTPVTVSS
VL: DIQMTQSPSSLSASVGDRVTITCRSSQSISSYLNWYQQKPGRAPKLLIHAASSLQSGVPSRFSGSGSGTDFTLTISSLQPEDFASYCCQQSYTTPPTFGGGTKVEIKR
notes: as for B2
